# T1: mouse ENTPD2 (Mus musculus, UniProt O55026)
# T1 construct: expressed in transfected cells; host or cells: NIH/3T3 (retroviral transduction)
# T1 sequence (O55026 1-495): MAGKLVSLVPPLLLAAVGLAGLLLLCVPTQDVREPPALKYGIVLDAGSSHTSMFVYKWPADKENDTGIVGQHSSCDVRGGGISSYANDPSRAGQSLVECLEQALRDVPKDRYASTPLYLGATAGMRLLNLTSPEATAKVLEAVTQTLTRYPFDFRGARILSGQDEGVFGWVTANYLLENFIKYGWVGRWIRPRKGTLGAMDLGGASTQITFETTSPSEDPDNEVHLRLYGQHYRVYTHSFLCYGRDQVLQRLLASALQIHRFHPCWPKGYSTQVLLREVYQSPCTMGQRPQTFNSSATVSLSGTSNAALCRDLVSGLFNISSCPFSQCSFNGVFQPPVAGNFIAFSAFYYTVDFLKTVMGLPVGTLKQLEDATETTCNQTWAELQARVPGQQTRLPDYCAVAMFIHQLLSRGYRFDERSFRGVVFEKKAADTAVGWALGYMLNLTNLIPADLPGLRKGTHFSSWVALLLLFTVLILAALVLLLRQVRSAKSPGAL
# B1: mAb13: anti-mouse ENTPD2 antibody; HC SEQ ID NO: 193, LC SEQ ID NO: 204 (antibody)
# heavy: QVQLVQSGAELKQPGQSVKISCKASGYTFTHYGMNWVKQAPGQGLKWMGWINTDTGNPTYADDFKGRFVFSLDTSVSTAYLQISNLKNEDTATYYCVRYGTLYSGYGFFFDSWGQGTLVTVSSAKTTAPSVYPLAPVCGDTTGSSVTLGCLVKGYFPEPVTLTWNSGSLSSGVHTFPAVLQSDLYTLSSSVTVTSSTWPSQSITCNVAHPASSTKVDKKIEPRGPTIKPCPPCKCPAPNLLGGPSVFIFPPKIKDVLMISLSPIVTCVVVDVSEDDPDVQISWFVNNVEVHTAQTQTHREDYNSTLRVVSALPIQHQDWMSGKEFKCKVNNKDLPAPIERTISKPKGSVRAPQVYVLPPPEEEMTKKQVTLTCMVTDFMPEDIYVEWTNNGKTELNYKNTEPVLDSDGSYFMYSKLRVEKKNWVERNSYSCSVVHEGLHNHHTTKSFSRTPGK
# light: DIMMTQSPSSLSVSAGEKATITCKSSQSLFNSNTNKNYLNWYLQKPGQSPKLLFYYASTRHTGVPDRFIGSGSGTDFTLTITSVQDEDLADYYCQQWYSYPWTFGPGTKLEIKRADAAPTVSIFPPSSEQLTSGGASVVCFLNNFYPKDINVKWKIDGSERQNGVLNSWTDQDSKDSTYSMSSTLTLTKDEYERHNSYTCEATHKTSTSPIVKSFNRNEC
# Tests used:
# mouse ENTPD2 = target: T1, mouse ENTPD2; test: Mouse ENTPD2 NIH/3T3 cell-based functional assay
# Text: Biochemical and cell-based functional assays were developed in-house to understand functional impact of anti-ENTPD2 Abs against purified extracellular domain of ENTPD2 (residues 29-462), as well as against the fully intact protein in the context of the native cell-based conformation. ENTPD2 hydrolyzes ATP to ADP, which can subsequently be detected using the HTRF Transcreener ADP2 TR-FRET Red Assay (BellBrook Labs, Madison, Wis.) where ENTPD2-produced ADP would compete with the ADP Tracer for binding to the anti-ADP-Tb antibody. The resulting signal is inversely proportional to the concentration of ADP in the sample.
# To establish cell-based functional assays, human/cyno/mouse ENTPD2-engineered NIH/3T3 cells or RKO (ATCC, Manassa Va.) colorectal cancer cells with endogenous ENTPD2 expression were plated overnight at 150, 200 and 250 cells per well for NIH/3T3 mouse, cyno and human ENTPD2 lines, respectively, or 1000 cells per well for RKO in 384-well tissue culture plate, in 30 μl per well (Perkin Elmer, Waltham, Mass.). The following day cells were pre-incubated with Anti-ENTPD2 Abs in dose response for 60 min at 37° C., 5% CO2 (10 μl of 5× antibody dose per well), and subsequently stimulated with a final concentration of 10 μM ATP (Teknova, Hollister, Calif.) for 20 minutes at room temperature (10 μl of 5× (50 μM) ATP per well). Reactions were quenched with 40 mM EDTA/40 mM EGTA, 25 μl per well, and 15 μl of quenched media was transferred to low volume Proxiplates (PerkinElmer, Waltham, Mass.) for ADP detection. ADP production was detected with the Transcreener ADP2 TR-FRET Red Assay (BellBrook Labs, Madison, Wis.) with a final concentration of 4 nM ADP2 antibody and 13.4 nM of ADP Tracer in wells (4× solution was prepared and 5 μL of “Detection Reagent Mix” was added to the quenched conditioned media). Plates were incubated with detection reagents for 1 hour at room temperature prior to reading plates in HTRF mode.
# HTRF signal (Emission at 620 nm and 665 nm) was assessed in both assays using the Envision plate reader in HTRF mode (Perkin Elmer, Waltham, Mass.). HTRF ratio was determined using the following formula: HTRF ratio=R=Emission at 665 nm/Emission at 620 nm×10,000. Subsequently % Residual Activity and % Inhibition were determined as follows:
# Where R0% is the HTRF ratio of the negative control (0% enzyme activity), and R100% is the HTRF ratio of the positive control (100% enzyme activity). Data were analyzed in Microsoft Excel and graphed using GraphPad's Prism 7.0 software and IC50 values were obtained using non-linear regression, log (agonist) vs. response-variable slope (four parameters) analysis.
# Anti-ENTPD2 mAb13 was identified as a mouse ENTPD2 selective Ab (FACS EC50 3-4 nM) with no binding to human or cyno ENTPD2.
# B16F10 tumor model = test: Syngeneic B16F10 tumor model, combination with anti-PD-1 Ab; tumor T cell influx by flow cytometry; format: in vivo, C57BL/6 mice
# Description: B16F10 model was established in female C57BL/6 mice by subcutaneous injection of 0.5×10^6 cells into the right flank of each mouse. On day 7 once tumors reached approximately 30 mm^3, mice were randomized according to tumor volume into treatment groups (n=10 per group). Mice received treatment of either anti-mouse ENTPD2 mAb13 at a final dose 15 mg/kg, anti-PD-1 Ab (clone RMP1-14 Bio X Cell, West Lebanon, N.H.) i.p. at a final dose of 10 mg/kg or the combination of both treatments on days 1, 5, and 8. All doses were adjusted to individual mouse body weights.
# In order to understand the impact of treatments on the tumor microenvironment, mice were euthanized on day 8 and tumors were dissociated in HyClone RPMI1640 media (GE Healthcare, Pittsburg, Pa.) using gentleMacs C-tubes (Miltenyi Biotec, Auburn, Calif.) on the gentleMacs Octo Dissociator (Miltenyi Biotec, Auburn, Calif.). Approximately 2×10^6 dissociated tumor cells were blocked with rat anti-mouse CD16/CD32 Ab (Biolegend, San Diego, Calif.) to reduce non-specific FcγRIII/II binding and subsequently stained with the following cocktail of Abs: rat anti-mouse CD45-BUV395 (clone 30-F11) (BD Biosciences, San Jose, Calif.), rat anti-mouse CD8a-BUV737 (clone 53-6.7) (BD Biosciences, San Jose, Calif.), rat anti-mouse CD4-BV510 (clone RM4-5) (BD Bioscience, San Jose, Calif.), anti-mouse CD69-PercPCy5.5 (clone H1-2F3) (Biolegend, San Diego, Calif.) and rat anti-mouse CD25-eFluor450 (clone eBio3C7) (eBioscience, San Diego, Calif.) at the manufacturers' recommended dilutions. All incubations and washes were performed in FACS Buffer composed of 1× HyClone Phosphate Buffered Saline (GE Healthcare, Pittsburg, PA), 1% HyClone Fetal Bovine Serum (GE Healthcare, Pittsburg, Pa.), 2 mM EDTA (ThermoFisher, Waltham Mass.). After staining with the cell surface antigen antibody cocktail, dissociated tumor cells were washed in FACS buffer, fixed and permeabilized using the eBioscience Foxp3/Transcription Factor Staining Buffer Kit (ThermoFisher, Waltham Mass.) to allow for intracellular staining with the mouse anti-mouse FOXP3-eFluor660 (clone 150D/E4) (eBioscience, San Diego, Calif.).
# [1] = combination with anti-PD-1 Ab, tumor, day 8
molecule,measurement,setting,value
B1,maximum target inhibition (mouse ENTPD2 inhibition),mouse ENTPD2; NIH3T3-mouse ENTPD2 engineered cell line,44%
same,% Inhibition at 100 nM (±Std Err),"mouse ENTPD2; mouse ENTPD2 NIH/3T3 cells, 100 nM",44 ± 7.3%
same,anti-tumor efficacy,"B16F10 tumor model; alone, mAb13 15 mg/kg, anti-PD-1 Ab 10 mg/kg i.p., days 1, 5, 8",No significant anti-tumor efficacy
same,tumor growth relative to No Treatment control,B16F10 tumor model; combination of mAb13 15 mg/kg and anti-PD-1 Ab 10 mg/kg,significant reduction in tumor growth
same,"influx of activated CD4 T-helper cells (CD45+ CD8-CD4+ FOXP3-CD69+ CD25+), increase vs No Treatment",B16F10 tumor model; [1],7.0 -fold
same,"influx of activated CD8 T cells (CD45+ CD4-CD8+ CD69+ CD25+), change vs No Treatment",B16F10 tumor model; [1],5.8 -fold

# From patent publication US20220348651A1, “ENTPD2 ANTIBODIES, COMBINATION THERAPIES, AND METHODS OF USING THE ANTIBODIES AND COMBINATION THERAPIES” (Novartis AG, priority 2019, published 2022)
